Where a chain is given by its changes, count along the chain named. “And” between values parts separate entries of the source, which are not always exact repeats. Identical values can stand only once.
What was measured:
cross-linking = target: the molecule itself; experiment: cross-linking
[1] = target: the molecule itself; experiment: single-molecule TIRF photobleaching
DLS = target: the molecule itself; experiment: DLS
SAXS = target: the molecule itself; experiment: SAXS
SEC-MALS [2] = target: the molecule itself; experiment: SEC-MALS
SEC-MALS [3] = target: the molecule itself; experiment: SEC-MALS; remark: listed apart in the source

B1: mTurquoise2-fused full-length Arc (1-396), wild type (natural protein)
chain: MELDHMTTGGLHAYPAPRGGPAAKPNVILQIGKCRAEMLEHVRRTHRHLLTEVSKQVERELKGLHRSVGKLENNLDGYVPTGDSQRWKKSIKACLCRCQETIANLERWVKREMHVWREVFYRLERWADRLESMGGKYPVGSEPARHTVSVGVGGPEPYCQEADGYDYTVSPYAITPPPAAGELPEQESVGAQQYQSWVPGEDGQPSPGVDTQIFEDPREFLSHLEEYLRQVGGSEEYWLSQIQNHMNGPAKKWWEFKQGSVKNWVEFKKEFLQYSEGTLSREAIQRELDLPQKQGEPLDQFLWRKRDLYQTLYVDAEEEEIIQYVVGTLQPKFKRFLRHPLPKTLEQLIQRGMEVQDGLEQAAEPSVTPLPTEDETEALTPALTSESVASDRTQPE
- stoichiometry N (cross-linking): 2 and 3

B2: recombinantly purified rat Arc^s113-119A with an N-terminal SNAP tag and a C-terminal AviTag (natural protein)
chain: B1 chain with M113A, H114A, V115A, W116A, R117A, E118A, V119A
modifications: AlexaFluor488 SNAP substrate on the SNAP tag; C-terminally biotinylated (AviTag)
- binding result [1]: binds

B3: mTq2-fused full-length Arc^s92-98A (natural protein)
chain: B1 chain with K92A, C94A, L95A, C96A, R97A, C98A
- stoichiometry N (cross-linking): 2

B4: mTq2-fused full-length Arc^s113-119A (natural protein)
chain: B1 chain with M113A, H114A, V115A, W116A, R117A, E118A, V119A
- stoichiometry N (cross-linking): 2

B5: purified wild-type human Arc (untagged) (natural protein)
chain: MELDHRTSGGLHAYPGPRGGQVAKPNVILQIGKCRAEMLEHVRRTHRHLLAEVSKQVERELKGLHRSVGKLESNLDGYVPTSDSQRWKKSIKACLCRCQETIANLERWVKREMHVWREVFYRLERWADRLESTGGKYPVGSESARHTVSVGVGGPESYCHEADGYDYTVSPYAITPPPAAGELPGQEPAEAQQYQPWVPGEDGQPSPGVDTQIFEDPREFLSHLEEYLRQVGGSEEYWLSQIQNHMNGPAKKWWEFKQGSVKNWVEFKKEFLQYSEGTLSREAIQRELDLPQKQGEPLDQFLWRKRDLYQTLYVDADEEEIIQYVVGTLQPKLKRFLRHPLPKTLEQLIQRGMEVQDDLEQAAEPAGPHLPVEDEAETLTPAPNSESVASDRTQPE
- stoichiometry N (DLS): 40 to 55 Arc molecules per capsid

B6: Arc^s113-119A with an N-terminal MBP fusion tag (natural protein)
chain: B5 chain with M113A, H114A, V115A, W116A, R117A, E118A, V119A
- stoichiometry N (SAXS): 2

B7: purified Arc^s113-119A (untagged) (natural protein)
chain: B5 chain with M113A, H114A, V115A, W116A, R117A, E118A, V119A
- stoichiometry N (SEC-MALS [2]): 2

B8: synthetic peptide of the Arc oligomerization region (residues 99-132) (peptide)
peptide: QETIANLERWVKREMHVWREVFYRLERWADRLES
- stoichiometry N (SEC-MALS [3]): 6

Source: doi:10.1101/667956 (bioRxiv, 2019)
